Results reported in paper PMC13132549.
Values joined by “and” are separate entries in the source; they are usually repeats but may differ in a detail not shown here. Identical values can stand only once.

Assays:
[1] = target: RXRγ (NR2B3) ligand-binding domain (LBD) (human) (UniProt P48443); test: ITC; 500 µM Nur77 LBD titrated into 50 µM RXRγ LBD preincubated with vehicle (DMSO) or RXR ligand; 5 °C; 0.25% DMSO; homodimer competition model (SEDPHAT) for the data without ligand
[2] = target: RXRγ (NR2B3) ligand-binding domain (LBD) (human) (UniProt P48443); test: SEC-MALS; 100 µL of each protein at 5 mg/mL (180 µM) injected; 40 mM potassium phosphate pH 7.4, 200 mM KCl; 25 °C
[3] = target: RXRα LBD (Homo sapiens) (UniProt P19793); test: ITC; conditions: cited from earlier work
[4] = target: RXRα (NR2B1) ligand-binding domain (LBD); test: SEC-MALS; 100 µL of each protein at 5 mg/mL (180 µM) injected; 40 mM potassium phosphate pH 7.4, 200 mM KCl; 25 °C

Chain of UniProt P19793 (P19793 227-458): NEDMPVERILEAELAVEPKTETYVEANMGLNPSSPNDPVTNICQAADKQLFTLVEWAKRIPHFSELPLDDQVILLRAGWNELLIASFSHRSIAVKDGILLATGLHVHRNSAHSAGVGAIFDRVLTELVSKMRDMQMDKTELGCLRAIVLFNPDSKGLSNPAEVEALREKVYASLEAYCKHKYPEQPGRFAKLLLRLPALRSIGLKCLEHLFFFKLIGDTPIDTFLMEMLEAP

Nur77 (NR4A1) ligand-binding domain (LBD) (from UniProt P22736 356-598) (domain or fragment)
Kd [1]: 9 µM

RXRγ (NR2B3) ligand-binding domain (LBD) (from UniProt P48443 226-463) (domain or fragment)
stoichiometry N [2]: 2 and 4

Nurr1 LBD (from UniProt P43354)
Kd [3]: 4 µM

RXRα (NR2B1) ligand-binding domain (LBD) (domain or fragment)
stoichiometry N [4]: 2 and 4
